B1: GFP-FIP200 CTR aa 1458-1594 [human] / GST-p62 FIR 4P [human] (parent)
chain 1: RIMLLERTLQLKEEENKRLNQRLMSQSMSSVSSRHSEKIAIRDFQVGDLVLIILDERHDNYVLFTVSPTLYFLHSESLPALDLKPGEGASGASRRPWVLGKVMEKEYCQAKKAQNRFKVPLGTKFYRVKAVSWNKKV
chain 2: MESDNCSGGDDDWTHLSSKEVDPDTGELQSLQMPESEGPDDLDPDQEGPTGLKEA

Variants of: B1
Assay: GSH bead recruitment assay imaged by microscopy
Conditions: with GST-p62 FIR 4P [human];; read off a plot

percent of parent	Variant
21%	chain 1 R116D
21%	chain 1 R127A
92%	chain 1 L78F
100%	chain 1 L78A
56%	chain 1 N60F
95%	chain 1 N60A
83%	chain 1 S75A
19%	chain 1 F117A
80%	chain 1 F117W
